The test concerns the target guanylyl cyclase-A (GC-A), human, stably expressed in QBIHEK293A cells (human) (UniProt P16066). In words: radioligand binding.
UniProt P16066, sequence (P16066 33-473): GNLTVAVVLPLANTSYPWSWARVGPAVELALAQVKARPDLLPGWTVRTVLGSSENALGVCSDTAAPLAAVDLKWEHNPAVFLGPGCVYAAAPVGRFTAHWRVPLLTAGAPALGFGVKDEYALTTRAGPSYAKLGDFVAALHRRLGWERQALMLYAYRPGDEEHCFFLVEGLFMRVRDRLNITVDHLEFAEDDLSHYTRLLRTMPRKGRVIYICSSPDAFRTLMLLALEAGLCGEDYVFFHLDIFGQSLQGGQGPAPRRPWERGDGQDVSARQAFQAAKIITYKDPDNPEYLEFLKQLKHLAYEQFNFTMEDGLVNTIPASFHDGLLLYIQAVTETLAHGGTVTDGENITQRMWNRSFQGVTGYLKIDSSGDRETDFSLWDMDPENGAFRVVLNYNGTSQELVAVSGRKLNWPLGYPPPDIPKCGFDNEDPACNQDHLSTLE

Turning to ^125I-ANP (peptide), the increase of binding with increasing concentrations of compound #20 is 71% and the increase of overall binding with 10 uM compound #20 against control is 60%.

Source of the values: doi:10.1101/2021.12.31.474340.
